Consider two molecules from patent publication US20140328838A1 (NVIP, published 2014).

The target of assay [1] is T1, human TNF (human, UniProt P01375 77-233).
T1 construct: also called huTNF
Briefly: ELISA (FIG. 16 panel B). For orientation: ELISA stands for enzyme-linked immunosorbent assay.

Assay [2] has as its target T2, canine TNF alpha (canine, UniProt P51742 77-233).
T2 construct: Coated at 5 ug/ml in the ELISA; Used at 1 ng/mL in the reporter assay
Briefly: ELISA, canine TNF alpha coated; antibody 5 to 0.05 µg/ml (FIG. 14B).

The target of assay [3] is T2, canine TNF alpha. Briefly: ELISA (FIG. 16 panel C).

T1 sequence (P01375 77-233 limits assumed): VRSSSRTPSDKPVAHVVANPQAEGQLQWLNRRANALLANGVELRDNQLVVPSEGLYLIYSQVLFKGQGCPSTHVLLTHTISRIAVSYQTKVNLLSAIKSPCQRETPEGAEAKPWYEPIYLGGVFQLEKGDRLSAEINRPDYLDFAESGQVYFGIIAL
T2 sequence (P51742 77-233 limits assumed): as the sequence (P01375 77-233 limits assumed) above, with R2K, Q21E, N30S, R44T, V49I, E53D, I83F, A109T, R138L, D140N counted along it

B1: caninised anti-TNF monoclonal antibody based on D2E7 (ca-HCB+ca-kLC) (antibody, V domains shown)
VH: not shown
VL: DIVMTQSPASLSLSQEEKVTITCRASQGIRNYLAWYQQKPGQAPKLLIYAASTLQSGVPSRFSGSGSGTDFTLTISSLEPEDVAVYYCQRYNRAPYTFGQGTKVEIKR
notes: also called caninised (Ca) D2E7 based MAb; canine PETised D2E7
B1: the binding result in assay [1] and in assay [2] was “binds” in each case.

B2: caninised anti-huTNF MAb 148 (antibody, V domains shown)
VH: EVQLVESGGGVVQPGGSLRLSCAASGFIFSSYAMRWVRQAPGKGLEWVAFMSYDGSNKKYADSVKGRFTISRDNSKNTLYLQMNSLRAEDTAVYYCARDRGIAAGGNYYYYGMDVWGQGTSVTVSS
VL: EIVMTQSPASLSLSPGEKATISCRASQSVYSYLAWYQQKPGQAPRLLIYDASNRATGVPSRFSGSGSGTDFTLTISSLEPEDVAVYYCQQPSNWPPFTFGPGTKVDIKR
notes: Expressed in CHO cells and purified by Protein A chromatography
Regarding B2, the values for the binding result in assay [1] and in assay [3] were “binds” and “no binding”, respectively.
